# Test results taken from patent US12692324B2, “Anti-chitinase-3-like protein-1 (YKL-40) neutralizing antibody and uses thereof” (Institute of Nuclear Energy Research, Atomic Energy …, priority 2022, dated 2026).
# Entries after “also recorded” stand apart in the source; their conditions may differ.
# B1: YKL-40 neutralizing antibody: isolated neutralizing antibody specifically binding chitinase-3-like protein-1 (YKL-40); VH SEQ ID NO: 7, VL SEQ ID NO: 8 (antibody, V domains shown)
# VH: QIQLVQSGPELKKPGETVRISCKASGYTFPNYGMNWVKQAPGKGLKWMGWINTYTGEPTYTVDFKGQFAFSLETSASTAYLQINNLKNEDTATYFCARSFYGTNGFDYWGQGTTLTVSS
# VL: NIVMTQSPKSMSMSVGERVTLSCKASENVGTYVSWYQQKPEQSPKLVIYGASNRYIGVPDRFTGSGSATDFTLTISSVEAEDLADYHCGQSYSYPPTFGGGTKLEIK
# modifications: recombinant YKL-40 neutralizing antibody
# Legend:
# [1] = system: CA5171 ovarian cancer cells, which overexpress chitinase-3-like protein-1; assay: Nano SPECT/CT bioimaging in tumor-carried mice; format: in vivo; details: tail vein injection
# Text: In order to verify these research results in a tumor-carried animal model, the CA5171 ovarian cancer cells, which overexpress chitinase-3-like protein-1, are inoculated in the left hind limb of the experiment animals. After the tumor volume grow to 200-300 mm3, use indium-111-DTPA-YKL-40 antibody complex as a radio-diagnostic drug for tumor mapping. The method of administration of diagnostic drugs is to inject the indium-111-DTPA-YKL-40 antibody complex by tail vein injection. Three tumor-carried mice are used as the animal model in both control and treatment groups, and the cross-sections of transverse, sagittal, and coronal are then taken at different time points such as 1, 4, 24 and 48 hours after administration. The tumor-carried mice of the control group are injected with indium-111-DTPA only, without YKL-40 antibody complex. […] The accumulation of the radioactive drug can at least last for 24 hours as shown in the results.
# [2] = system: human ovarian cancer cell CA5171; details: for proportion of Annexin V/7-AAD-positive apoptosis: CA5171, 50 μg/mL YKL-40 neutralizing antibody and/or 2.5 nM paclitaxel, 37° C., 48 hours
# Procedure: It is important to know whether the YKL-40 neutralizing antibody of the present disclosure can induce cell apoptosis after combining with human ovarian cell CA5171. In this experiment, two specific dyes “7-amino-actinomycin D” (7-AAD) and “Annexin V” are used in the flow cytometry analysis to detect if the YKL-40 neutralizing antibody induces the cell apoptosis. In addition, the combination treatment of the chemotherapy drug paclitaxel and the YKL-40 neutralizing antibody is also analyzed in this experiment.
# The experiment procedure applied herein is, firstly, to treat human ovarian cancer cell CA5171 with a final concentration of 50 μg/mL YKL-40 neutralizing antibody and/or 2.5 nM paclitaxel, then culture them at 37° C. for 48 hours. The control group is treated with normal saline. After the culturing, the cells are collected and stained with 7-AAD and FITC-conjugated annexin V (FITC, Fluorescein isothiocyanate) dyes for 30 minutes. After staining, the cells are washed by using cytometer analysis solution (normal saline with a final concentration of 0.2% fetal bovine serum and 0.5% sodium azide), and then analyzed by flow cytometry.
# [3] = system: human ovarian cancer cell CA5171; assay: Binding ability of antibody to human ovarian cancer cell CA5171 by flow cytometry; format: cell-based
# Procedure: When the YKL-40 neutralizing antibody of the present disclosure is isolated and purified, its binding ability to human ovarian cell CA5171 is then evaluated by flow cytometry. In this example, the antibody of the control group and YKL-40 neutralizing antibody are respectively added to the culture of the ovarian cell CA5171. After a period of culturing, the human ovarian cell CA5171 are then analyzed by flow cytometry. Please refer to FIGS. 1A and 1B. […] From the results, the binding ability of the control group antibody IgG is 28.69%, while the binding ability of the YKL-40 neutralizing antibody is as high as 71.57%.
Molecule,time the radioactive drug sustains in the abdominal organs [1],proportion of Annexin V/7-AAD-positive apoptosis [2],cytotoxicity (in words) [2],binding ability ([3]; human ovarian cell CA5171),binding to CA5171 cells (in words) ([3]; versus control IgG antibody)
O=C([O-])CN(CCN(CC(=O)[O-])CC(=O)[O-])CCN(CC(=O)[O-])CC(=O)[O-].[111In+3].[H+].[H+] [indium-111-DTPA],1 h,,,,
"CC(=O)O[C@H]1C(=O)[C@@]2(C)[C@H]([C@H](OC(=O)c3ccccc3)[C@]3(O)C[C@H](OC(=O)[C@H](O)[C@@H](NC(=O)c4ccccc4)c4ccccc4)C(C)=C1C3(C)C)[C@]1(OC(C)=O)CO[C@@H]1C[C@@H]2O [paclitaxel, reference compound]",,43.90%±0.35%,,,
B1,,3.91±0.11%,not observed to be cytotoxic,71.57%,stronger binding ability to CA5171 ovarian cells than the control group; also recorded: can significantly bind to human ovarian cancer cell CA5171
